Laboratory results reported in paper PMC12045711.

What was measured:
[1] = biological target: Thermoproteota archaeon TasR (TaTasR) (Thermoproteota archaeon isolate LB_CRA_1); experiment: cryo-EM structure; TasR tigRNA1 RNP (16 uM) mixed with 60-bp target DNA (8 uM), 29 mM HEPES-KOH pH 7.9, 149 mM KCl, 5 mM MgCl2, 42 C for 1 h; 2D classification of the final particles with a large box and a 300 A circular mask
[2] = biological target: Thermoproteota archaeon TasR (TaTasR), TIGR-associated protein with an N-terminal RuvC nuclease domain and a Nop domain (Thermoproteota archaeon isolate LB_CRA_1); experiment: cryo-EM structure; TasR tigRNA1 RNP (16 uM) mixed with a 60-bp DNA target (8 uM) in 29 mM HEPES-KOH pH 7.9, 149 mM KCl, 5 mM MgCl2; 42°C for 1 hour, then on ice for 3 hours; post-cleavage product complex

stoichiometry N [1] | stoichiometry N [2] | Substance
2 |  | Thermoproteota archaeon TasR (TaTasR) (enzyme)
 | 2 | Thermoproteota archaeon TasR (TaTasR), TIGR-associated protein with an N-terminal RuvC nuclease domain and a Nop domain (enzyme)
